# Source: the nanobody polyreactivity screen of Harvey et al. (2022)
# Assay: yeast display, Sf9 membrane polyspecificity reagent, FACS + sequencing; frameworks hold sequencing errors
# In short: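 Synthetic nanobody libraries on Saccharomyces cerevisiae BJ5465 were galactose-induced for 36–48 hours, stained 1 hour at 4 °C with 10% biotinylated, detergent-solubilized Sf9 membrane reagent and enriched on streptavidin microbeads. FACS then separated cells into low and high (top ~1%) gates by anti-HA (expression) and streptavidin (reagent binding) fluorescence. Genes were colony-PCR amplified, MiSeq 2 × 250 sequenced and CDR-length filtered. A clone's polyreactivity label is that of its gate of origin.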
row,Sequence,polyreactivity (PSR sort gate)
1,QVQLVESGGGLVQAGGSLRLSCAASGIIFYRYTKGWSRQAPGKETELVAGITRNGGSTYYADSVKGRFTISRVNAKNPVYLQMNSLKPEDTAVYYCATTLKFYWAKLDYRGQGTQVTVSS,low polyreactivity
2,QVQLVESGGGLVQAGGSLRLSCAASGFTFRDYAMGWSRQAPGKERELVAAISRSGDSTYYADSVKGRFTISRDNAKNTVYLQMNSLKPEDTAVYYYAAKRRYTTYDYWGQGTQVTVSS,high polyreactivity
3,QVQLVESGGGLVQAGGSLRLSCAASGRIFIANTMGWYRQAPGKERELVAAITQRGDSTYYADSVKGRFTISRDNAKNTVYLQMNSLKPEDTAVYYCAARYYLSSYVRYNYWGQGTQVTVSS,high polyreactivity
4,QVQLVESGGGLVQAVGSLRLSCAASGRIFYSYAMGWYRQAPGKERELVAAITRGGSTSYADSVKGRFTISRDNAKNTVYLQMNSLKPDDTAVYYCATRQFYSYWKYYYWGQGTQVTVSS,high polyreactivity
5,QVQLVESGGGLVQAGGSLRLSCAASGRTFNTNAMGWYRQAPGKERELVAAITRSGDSTYYADSVKGRFTISRDNAKNTVYLQMNSLKPEDTAVYYCAAYSRTLYPDRYYWGHGTQVTVSS,high polyreactivity
6,QVQLVESGGGLVQAGGSLRLSCAASGSIFSANAMGWYRQAPGKERELVAAITSGDSTKYADSVKGRFTISRDNAKNTVYLQMNSLKPEDTAVYYCAVDRGEYKNRVGEEYWGQGTQVTVSS,low polyreactivity
7,QVQLVESGGGLVQAGGSLRLSCAASGRTFHSYAMGWYRQAPGKERELVAVITRRGGSTYYADSVKGRFTISRDNAKNTVYLQMNSLKPEDTAVYYCNKGKSYTYDYWGQGTQVTVTS,high polyreactivity
8,QVQLVESGGGLVQAGGSLRLSCAASGRIFIRNDMGWYRQAPGKERELVAVITRSGGRTYYADSVKGRFTISRDNAKNTVYLQMHSLKPEDTAVYSCAKRQAFKQAPYEYWGQGTQVTVSS,low polyreactivity
9,QVQLQESGGGLVQVGGSLRLSCAASGTIIIYGFLGWNRQAPGKERELVASINLGGITNYADSVKGRFTISRDNAKNTVYLQMISLKPEDTAVYYCAAYVVTGQNYGYWGQGTQVTVSS,low polyreactivity
10,QVQLVESGGGLVQAGGSLRLSCDASGSIFQRYAMGWYRPAPGKERELVAGINWSGGRTYYADSVKGRFTISRDNAKNTVYLQMISLKPEDTAVYYCAAARYTRYDYWGQGTQVTVSS,high polyreactivity
11,QVQLVESGGGLVLAGGRLRLSCAASGFTFGPYAMGWSRQAPGKERELVAAISQSGGRTSYAVSVKGRFTISRDNGKNTVYLQMNSLKPEDTAVYYCAKRANGYRSIYRMDYWGQGTQVTVSS,high polyreactivity
12,QVQLVESGGGLVQAGGSLRLSCAASGITFGSYAMGWYRHAPGKERELVAAIRWRGGNTYYADSVKGRFTISRDNAKNTVYLQMNSLKPEDTAVYSCAARRYGYRYDQPYYNDYWGQGTQVTVSS,low polyreactivity
13,QVQLVESGGGLVQAGGSLRLSCAASGSTFDNNGMGWYRQAPGKERELVASITFNVGSTYYADSVKGRFTISRDNAKNTVYLQMNSLKPEDTAVYYCAADDLNLSQALGYDYWGQGTQVTVSS,low polyreactivity
14,QVQLVESGGGLVQAGGSLRLSCAASGIIFGRYAMGWYRQAPGKERELVAAITWSGGGTYYADSVKGRFTISRDNAKNTVYLQMNSLKPEDTAVYYCAARTTPHWGYVSTNYWGQGTQVTVSS,low polyreactivity
15,QVQLVESGGGLVQAGGSLRLSCAASGSISGYYAMGWYRQAPGKERELVASIRYTGARTYYADSVKGRFTISRDNAKNTVYLQMNSLKPEDTAVYYCAADFRSVFSKYSYYLYFDFDYWGQGTQVTVSS,low polyreactivity
16,QVQLVEAGGGLVQAGGSLRLSCAASGRTFRYYAMRWYRQATGKERELVAAITTGSSTYYADSVKGRFTISRDNAKNTVYLQMNSLKPEDTAVYYCAADHLYWGLEYESWGQGTQVTVSS,low polyreactivity
17,QVQLVESGGGLVQAGGSLRLSCAASGLIFRLYAMGWYRQAPGKERELVAAISGGGGSTYYADSVKGRFTISRDNAKNTVYLQMNSLKPEDTAVYYCAATYSRGYWWSEYDYWGQGTQVTVSS,low polyreactivity
18,QVQLVESGGGLVQAGGRLRLSCAASGRTFYVYTMGWYRQAPGPERELVAAIPSGGSTNYADSVKGRFTISRDNAKKTVYLQMNSLKPEDTAVYYCAARDSTVFKRYYYWGQGTQVTVSS,high polyreactivity
19,QDQLVESGGGLVQAGGSLRLSCAASGLISSINAMGWYRQAPGKERELVAAISFSGGRTYYADSVKGRFTISRDNAKNTVYLQMNSLKPEDTAVYYFNAVSGGHRSRYGYWGQGTLVTVSS,high polyreactivity
20,QVQLVESGGGLVQAGGSLRLSCAASGYIFSLYAMGWYRQAPGKERELVADITTSAGSTYYADSVKGRFTISRDNAKNTVYLQMNSLKPEDTAVYYCAADVYGHTYYDYDYWGQGTQVTVSS,low polyreactivity
21,QVQLVESGGGLVQAGGSLRLSCAASGFTFSYYAMGWYRQAPGKERELVAVISDRGGITYYADSVKGRFTISRDIAKITVYLQMNSLKPEDTAVYYCAAQNPRYNYRYYYWGQGTQVTVSS,low polyreactivity
22,QVQLVESGGGLVQAGGSLRLSCAASGRILPRNAMGRYRQAPGKEREVVAGIYSDGSTNYADSVKGRFTISRDNAKNTVYLQMKSLKPEETAVYYCAKQFSSYQYFIILISPGDYWGQGTQVTVSS,low polyreactivity

row,Sequence,polyreactivity (PSR sort gate)
1,QVQLVESGGGLVQAGGSLRLSCAASGSNFSSNAMGWYRQAPGKERELFAAITWSGGSTYYADSVKGRFTISRDNAKKTVYFEMNSLKPEDTAGFYCNARRNVRQTFGYEYWGQGTQVTVSS,high polyreactivity
2,QVQLVESGGGLVQAGGSLRLSCAASGSTLVRYALGLSRQAPGKERELVAAISRSGSSTYYADSVKGRFTISRDIAKNTVYLQMNSLKPEDTAVYYCATDRYPTTPYYNYRFGYWGQGTQVTVSS,high polyreactivity
3,QVQLVESGGGLVQAGGSLRLSCASSGRTFRRYARGWYRQAPGKERELVATIRSGDNTNYADSVKGRFTISRDNAKNTVYLQMNSLKPEDTAVYYCNRSPKSGQVTYLYSVNAHYDYWGQGTQVTVSS,low polyreactivity
4,QVQLLESGGGLVQAGGSLRLSCAASGRIFTPYAMGWYRQAPGKERELVAVIRDGSTYYADSVKGRFTISRDNAKNTVYLQMNSLKPEDTAVYYCAADVGYSPYFFGGTRYYKYDYWGQGTQVTVSS,low polyreactivity
5,QVQLVESGGGLVQAGGSLRLSCAASGFIFPRNVMGWYRQAPGKERELVAAISRSGGSTYYADSVKGRFTISPDNVKNTVFLQMNSLIPEDTAVYYFAKRTFYNGEYWGQGTQVTVSS,low polyreactivity
6,QVQLVESGGGLVQAGGSLLLSCAASGFTFWNYAMGWYRQAPGKEMEFVASITWSGGSTYYADSVKGRFTISSDNAKNTVYLQMNSLKPEDTAVYYCAVGGSGYGLYGVGYALDYWGQGTQVTVSS,high polyreactivity
7,QVQLVESGGGLVQAGGSLRLSCAASGRISSAYAMGWYRQAPGKERELVAAISSGTRTNYADSVKGRFTMSRDNAKNTVYLQMNSLKPEDTAVYYCNAVPGYVYYYQYWGQGTQVTVSS,high polyreactivity
8,QVQLVESGGGLVQAGGSLRLSCAASGSTIVRYAMGWNRQAPGKERELVAAISSRGGCTYYADSVKGRFTISRDNAKNTVYLQMNSLKPEDTAVYYCNADYSVGSWGQGTQVTVSS,high polyreactivity
9,QLQLVESGGGLVQAGGSLRLSCAASGNIFNYYAMGWYRQATGKERELVAAIRSGARTSYADSVKGRFTISRDNAKNTVYLQMNSLKPEDTAVYYCAASRFRWVQRDDYWGQGTQVTVSS,high polyreactivity
10,QVQLVESGGGLVQAGGSLRLSCAASGFILLDNGMGWYREAPGKERELVAAITYSGDTTYYADSVKGRFTISRDNAKNTVYLQMNSLKPEDTAVYYCNADNDKWTTGHDYWGQGTQVTVSS,low polyreactivity
11,QVQLVESGGGLVQAGCSLRLSCAASGRTFARYVMGWYRQAPGKEREFVATISTSGTSTYYADSVKGRFTISRDNAKNTVYLQMNSLKPAETAVYYCAARRTTRGYDYWGQGTQVTVSS,high polyreactivity
12,QVQLVESGGGLVQAGGSLRLSCAASGSTFGGNVMGWYRPAPGKERELVATISRSGGSTYYADSVKGRFTISRDNAKNTVYLQMNSLKPEDTAVYYCAARTLHYSPSTFYRYQYDYWGQGTQVTVSS,high polyreactivity
13,QVQLVESGGGLVQAGGSLRLSCAASGSIFISYARGWYRQAPGKERELVAAITWSGDSTYYADSVKGRFTISRDNAKNTVYLQMNSLKPEDTAVYYCAADWYFRNQRGYYWGQGTQVTVSS,low polyreactivity
14,QVQLVESGGGLVQAGGSLRLSCAASGRIFTFYAMGWYRQAPAKERELVAAISSGGSTYYADSVKGRFTISRDNAKNTVYLQMNSLKPEDTAVYYCAAEPVWYADYDYWGQGTQVTVSS,low polyreactivity
15,QVQLVESGGGIVQAGGSLRLSCAASGFILDYNAMGWYRQAPGKERELVATITGRGDRTYYADSVKGRFTISRDNAKNTVYLQMNSLKPEDTAVYDCAAGFDGSRHPGFDSWGQGTQVTVSS,low polyreactivity
16,QFQLVESGGGLVQAGGSLRLSCAASGSTFDINDMGWYRQAPGKERELVAAITTSGASTYYADSVKGRFTISRDNAKNTVYLQMNSLKPEETAVSYCAADCLSYVWYVWYDYWGQGTKVTVSS,low polyreactivity
17,QVQLVDSVGVLVQAGGSLRLSCAASGSIFYRNVMGWYRPAPGKERELVATISRGGTTNYADSVKGRFTISRDNAKNTVYLQMNSLKPEDTAVFYCAAPIGDVYVGIGYDSWGQGTQVTVSS,low polyreactivity
18,QVQLVESGGGLVQAGGRLRLSCAASGSTLSLYDMGRYRQAPGKERELVAAITSSGGTYYADSVKGRFTISRDNAKNTVFLQMKSLKPEDTAVYYCNAYAKDARSYGFHRVNYWGQGTQVTVSS,high polyreactivity
19,QVQLVESGGGLVQAGGSLRLSCAASGRTFDYYAMGWYRQAPGKERELVAAISSTGTSTYYGDSVKGRFTISRDNAKNTVYLQMNRLKPVDTAVYYCSAVSWYEYDYWGQGTQVSVSS,high polyreactivity
20,QVQLVESGGGLVQAGGSLRLSCAASGRIFTPNAMGWSRQAPGKERELVAAITWSGDNTYADSVKGRFTISRDNAKNTVYLQMNSLKPEDTAVYYCAAAYGYGHKKYGYWGQGTQVTVSS,low polyreactivity
21,QVQLVESGGGLVQAGGSLRLSCAASGYTYPQNAMGWYIKAPGKERDLFAAISRSGGSTNYADSVKGRNTISRDNAKNTVYLQMNILKPEDTAVYYCARYNYTRQTRVEYGYWGQCTQVTVSS,high polyreactivity
